The record followed here is the supplement of paper PMC9112550, “Optimization of the antimicrobial peptide Bac7 by deep mutational scanning” (BMC Biology, 2022).

The subject of this data set is Escherichia coli TOP10. Nature of the data set: shrunken log2 fold change of peptide-encoding DNA abundance (4.5 h post-induction vs induction); higher = less antimicrobial activity (less host growth inhibition). To be noted: time post-induction: 4.5 h; library: site-saturation at positions 5, 18, 19, 20.
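Also: peptides expressed intracellularly from a pBAD plasmid library in pooled LB shake-flask culture, induced with 0.3% L-arabinose, DNA abundance read by NGS, three biological replicates, DESeq2 with apeglm shrinkage.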

Regarding RRIRWRPPRLPRPRPRPNWHPRP, the “shrunken log2 fold change” value is -0.00322.

Turning to RRIRFRPPRLPRPRPRPVIGPRP, the “shrunken log2 fold change” value was -0.234.

In the case of RRIRWRPPRLPRPRPRPMPEPRP, the “shrunken log2 fold change” value is -0.236.

As for RRIRHRPPRLPRPRPRPFISPRP, the “shrunken log2 fold change” value was -0.387.

On to RRIRERPPRLPRPRPRPAEGPRP, for which the “shrunken log2 fold change” value is -0.179.

On to RRIRKRPPRLPRPRPRPEPLPRP, for which the “shrunken log2 fold change” value stood at 0.636.

For RRIRLRPPRLPRPRPRPQQGPRP, the “shrunken log2 fold change” value was -0.0774.

On to RRIRIRPPRLPRPRPRPFIYPRP, for which the “shrunken log2 fold change” value was -0.899.

For RRIRKRPPRLPRPRPRPAQWPRP, the “shrunken log2 fold change” value was 0.421.

Consider RRIRSRPPRLPRPRPRPELGPRP, for which the “shrunken log2 fold change” value came to 0.547.

Take RRIRRRPPRLPRPRPRPDSFPRP: the “shrunken log2 fold change” value was -0.0228.

For RRIRYRPPRLPRPRPRPANMPRP, the “shrunken log2 fold change” value is -0.683.

Consider RRIRPRPPRLPRPRPRPARFPRP, for which the “shrunken log2 fold change” value came to 0.383.

Consider RRIRYRPPRLPRPRPRPIRVPRP, for which the “shrunken log2 fold change” value was -0.0013.

As to RRIRWRPPRLPRPRPRPNYTPRP, the “shrunken log2 fold change” value is -0.279.

For RRIRLRPPRLPRPRPRPHRVPRP, the “shrunken log2 fold change” value came out at 0.0399.

For RRIRRRPPRLPRPRPRPLMNPRP, the “shrunken log2 fold change” value was found to be 0.312.

Turning to RRIRFRPPRLPRPRPRPFSFPRP, the “shrunken log2 fold change” value was -0.499.

Take RRIRRRPPRLPRPRPRPRHNPRP: the “shrunken log2 fold change” value is -0.14.

Turning to RRIRNRPPRLPRPRPRPERMPRP, the “shrunken log2 fold change” value was -0.0351.

For the sequence RRIRHRPPRLPRPRPRPAKAPRP, the “shrunken log2 fold change” value turned out to be 0.0344.

Turning to RRIRARPPRLPRPRPRPQVAPRP, the “shrunken log2 fold change” value is 0.591.

Consider RRIRWRPPRLPRPRPRPQQYPRP, for which the “shrunken log2 fold change” value is -0.284.

With RRIRYRPPRLPRPRPRPSPVPRP, the “shrunken log2 fold change” value is -0.612.

Consider RRIRPRPPRLPRPRPRPLRPPRP, for which the “shrunken log2 fold change” value came to 0.726.

Regarding RRIRARPPRLPRPRPRPGHLPRP, the “shrunken log2 fold change” value was determined as 0.337.

Take RRIRLRPPRLPRPRPRPNKIPRP: the “shrunken log2 fold change” value is -0.243.

Take RRIRLRPPRLPRPRPRPKRRPRP: the “shrunken log2 fold change” value is -0.259.

With RRIRWRPPRLPRPRPRPPTHPRP, the “shrunken log2 fold change” value turned out to be 0.469.

Turning to RRIRGRPPRLPRPRPRPMFGPRP, the “shrunken log2 fold change” value turned out to be 0.39.

Take RRIRFRPPRLPRPRPRPERLPRP: the “shrunken log2 fold change” value is 0.265.

Take RRIRCRPPRLPRPRPRPKEIPRP: the “shrunken log2 fold change” value was 0.0368.

Turning to RRIRMRPPRLPRPRPRPSTFPRP, the “shrunken log2 fold change” value was found to be 0.147.

For RRIRQRPPRLPRPRPRPSDDPRP, the “shrunken log2 fold change” value was -0.0143.

As for RRIRSRPPRLPRPRPRPTLGPRP, the “shrunken log2 fold change” value stood at 0.378.

Take RRIRARPPRLPRPRPRPKGLPRP: the “shrunken log2 fold change” value is 0.433.

Regarding RRIRWRPPRLPRPRPRPWAHPRP, the “shrunken log2 fold change” value is 0.0966.

RRIRIRPPRLPRPRPRPHRHPRP: the “shrunken log2 fold change” value is -0.364.

On to RRIRMRPPRLPRPRPRPQRIPRP, for which the “shrunken log2 fold change” value is -0.0462.

Regarding RRIRMRPPRLPRPRPRPMYEPRP, the “shrunken log2 fold change” value is 0.221.

Turning to RRIRKRPPRLPRPRPRPYPCPRP, the “shrunken log2 fold change” value was -0.034.

On to RRIRHRPPRLPRPRPRPKINPRP, for which the “shrunken log2 fold change” value was -0.817.

With RRIRCRPPRLPRPRPRPQQIPRP, the “shrunken log2 fold change” value is -0.168.

As for RRIRGRPPRLPRPRPRPDYSPRP, the “shrunken log2 fold change” value is -0.0453.

Turning to RRIRLRPPRLPRPRPRPSNIPRP, the “shrunken log2 fold change” value was -0.103.

RRIRCRPPRLPRPRPRPCFMPRP: the “shrunken log2 fold change” value is -0.416.

Turning to RRIRPRPPRLPRPRPRPRRLPRP, the “shrunken log2 fold change” value was 0.279.

In the case of RRIRCRPPRLPRPRPRPVFDPRP, the “shrunken log2 fold change” value was -0.198.

Consider RRIRVRPPRLPRPRPRPSWFPRP, for which the “shrunken log2 fold change” value was -0.262.

Take RRIRWRPPRLPRPRPRPAKCPRP: the “shrunken log2 fold change” value was -0.0704.

As to RRIRMRPPRLPRPRPRPCNPPRP, the “shrunken log2 fold change” value is -0.0764.

As for RRIRLRPPRLPRPRPRPNDCPRP, the “shrunken log2 fold change” value was found to be 0.0412.

Consider RRIRRRPPRLPRPRPRPEGGPRP, for which the “shrunken log2 fold change” value amounted to 0.103.

Consider RRIRERPPRLPRPRPRPVDAPRP, for which the “shrunken log2 fold change” value is -0.137.

For the sequence RRIRNRPPRLPRPRPRPLYTPRP, the “shrunken log2 fold change” value is -0.269.

Consider RRIRGRPPRLPRPRPRPITHPRP, for which the “shrunken log2 fold change” value came out at 0.0909.

As for RRIRARPPRLPRPRPRPSRLPRP, the “shrunken log2 fold change” value was determined as 0.487.

Turning to RRIRVRPPRLPRPRPRPHMEPRP, the “shrunken log2 fold change” value was -0.0402.

Take RRIRQRPPRLPRPRPRPLNLPRP: the “shrunken log2 fold change” value is -0.249.

Consider RRIRLRPPRLPRPRPRPRMTPRP, for which the “shrunken log2 fold change” value amounted to 0.206.

RRIRGRPPRLPRPRPRPHHGPRP: the “shrunken log2 fold change” value was determined as 0.0719.

On to RRIRMRPPRLPRPRPRPRHVPRP, for which the “shrunken log2 fold change” value came to 0.437.

In the case of RRIRIRPPRLPRPRPRPSNIPRP, the “shrunken log2 fold change” value is -0.207.

Turning to RRIRDRPPRLPRPRPRPTVKPRP, the “shrunken log2 fold change” value is -0.043.

Consider RRIRGRPPRLPRPRPRPAMSPRP, for which the “shrunken log2 fold change” value is 0.508.

Regarding RRIRERPPRLPRPRPRPSLYPRP, the “shrunken log2 fold change” value is -0.558.

For RRIRLRPPRLPRPRPRPYMIPRP, the “shrunken log2 fold change” value is -0.449.

For RRIRWRPPRLPRPRPRPFCNPRP, the “shrunken log2 fold change” value was -0.24.

As for RRIRTRPPRLPRPRPRPRTMPRP, the “shrunken log2 fold change” value amounted to 0.0616.

With RRIRGRPPRLPRPRPRPLCIPRP, the “shrunken log2 fold change” value was 0.366.

On to RRIRNRPPRLPRPRPRPFFIPRP, for which the “shrunken log2 fold change” value was -0.586.

In the case of RRIRFRPPRLPRPRPRPGNRPRP, the “shrunken log2 fold change” value is 1.63.

Regarding RRIRPRPPRLPRPRPRPYTVPRP, the “shrunken log2 fold change” value was -0.947.

For the sequence RRIRPRPPRLPRPRPRPHWEPRP, the “shrunken log2 fold change” value is -0.146.

RRIRPRPPRLPRPRPRPSQCPRP: the “shrunken log2 fold change” value is -0.985.

Consider RRIRARPPRLPRPRPRPSSGPRP, for which the “shrunken log2 fold change” value was determined as 0.412.

As for RRIRERPPRLPRPRPRPSHPPRP, the “shrunken log2 fold change” value was -0.481.

On to RRIRARPPRLPRPRPRPNMTPRP, for which the “shrunken log2 fold change” value is 0.147.

Consider RRIRVRPPRLPRPRPRPVYCPRP, for which the “shrunken log2 fold change” value was -0.482.

In the case of RRIRMRPPRLPRPRPRPLGGPRP, the “shrunken log2 fold change” value was 0.548.

RRIRLRPPRLPRPRPRPWGTPRP: the “shrunken log2 fold change” value is -0.169.

On to RRIRWRPPRLPRPRPRPVSHPRP, for which the “shrunken log2 fold change” value was -0.0115.

In the case of RRIRLRPPRLPRPRPRPCCLPRP, the “shrunken log2 fold change” value is -0.293.

With RRIRVRPPRLPRPRPRPDDVPRP, the “shrunken log2 fold change” value was -0.297.

Take RRIRGRPPRLPRPRPRPWTCPRP: the “shrunken log2 fold change” value is -0.0593.

In the case of RRIRGRPPRLPRPRPRPHDGPRP, the “shrunken log2 fold change” value is 0.0288.

On to RRIRYRPPRLPRPRPRPEYHPRP, for which the “shrunken log2 fold change” value was -0.0883.

For the sequence RRIRGRPPRLPRPRPRPRQMPRP, the “shrunken log2 fold change” value was -0.0496.

Regarding RRIRVRPPRLPRPRPRPTECPRP, the “shrunken log2 fold change” value was 0.00778.

With RRIRNRPPRLPRPRPRPKLIPRP, the “shrunken log2 fold change” value was -0.0332.

With RRIRNRPPRLPRPRPRPANIPRP, the “shrunken log2 fold change” value is -0.0793.

RRIRKRPPRLPRPRPRPCMNPRP: the “shrunken log2 fold change” value was -0.279.

On to RRIRARPPRLPRPRPRPACYPRP, for which the “shrunken log2 fold change” value came to 0.489.

RRIRVRPPRLPRPRPRPWTRPRP: the “shrunken log2 fold change” value is -0.0486.

On to RRIRKRPPRLPRPRPRPQAAPRP, for which the “shrunken log2 fold change” value amounted to 0.451.

In the case of RRIRGRPPRLPRPRPRPMCDPRP, the “shrunken log2 fold change” value is 1.07.

Consider RRIRWRPPRLPRPRPRPLCQPRP, for which the “shrunken log2 fold change” value is 0.0938.

On to RRIRLRPPRLPRPRPRPHWTPRP, for which the “shrunken log2 fold change” value is -0.015.

As to RRIRHRPPRLPRPRPRPDFEPRP, the “shrunken log2 fold change” value was 0.18.

With RRIRDRPPRLPRPRPRPQVCPRP, the “shrunken log2 fold change” value was 0.19.

For RRIRRRPPRLPRPRPRPEASPRP, the “shrunken log2 fold change” value stood at 0.75.

With RRIRVRPPRLPRPRPRPSTEPRP, the “shrunken log2 fold change” value is -0.331.

On to RRIRNRPPRLPRPRPRPFICPRP, for which the “shrunken log2 fold change” value is -0.38.

In the case of RRIRERPPRLPRPRPRPSLQPRP, the “shrunken log2 fold change” value is 0.175.

In the case of RRIRRRPPRLPRPRPRPESWPRP, the “shrunken log2 fold change” value came out at 1.12.

On to RRIRYRPPRLPRPRPRPDEFPRP, for which the “shrunken log2 fold change” value amounted to 0.0196.

As to RRIRFRPPRLPRPRPRPNVQPRP, the “shrunken log2 fold change” value was -0.237.

As to RRIRGRPPRLPRPRPRPSLMPRP, the “shrunken log2 fold change” value amounted to 0.5.

RRIRHRPPRLPRPRPRPIGYPRP: the “shrunken log2 fold change” value came to 0.0062.

As for RRIRFRPPRLPRPRPRPYQFPRP, the “shrunken log2 fold change” value turned out to be 0.0166.

As to RRIRDRPPRLPRPRPRPFTLPRP, the “shrunken log2 fold change” value is -0.0329.

With RRIRYRPPRLPRPRPRPFISPRP, the “shrunken log2 fold change” value is -0.341.

RRIRSRPPRLPRPRPRPNHNPRP: the “shrunken log2 fold change” value was -0.784.

Regarding RRIRGRPPRLPRPRPRPSNLPRP, the “shrunken log2 fold change” value was -0.113.

As to RRIRCRPPRLPRPRPRPVDWPRP, the “shrunken log2 fold change” value was 1.33.

Regarding RRIRQRPPRLPRPRPRPLMEPRP, the “shrunken log2 fold change” value was -0.17.

Consider RRIRYRPPRLPRPRPRPVIPPRP, for which the “shrunken log2 fold change” value is -0.0128.

With RRIRYRPPRLPRPRPRPEQKPRP, the “shrunken log2 fold change” value came to 0.0039.

Turning to RRIRDRPPRLPRPRPRPQMNPRP, the “shrunken log2 fold change” value was -0.315.

For RRIRKRPPRLPRPRPRPYIKPRP, the “shrunken log2 fold change” value is -0.28.

Take RRIRFRPPRLPRPRPRPYSEPRP: the “shrunken log2 fold change” value is -0.297.

On to RRIRLRPPRLPRPRPRPYICPRP, for which the “shrunken log2 fold change” value was -0.0262.

In the case of RRIRCRPPRLPRPRPRPHNEPRP, the “shrunken log2 fold change” value is -0.535.

Regarding RRIRCRPPRLPRPRPRPCMAPRP, the “shrunken log2 fold change” value was -0.427.

Consider RRIRARPPRLPRPRPRPAVQPRP, for which the “shrunken log2 fold change” value is -0.0122.
